According to patent US20240035010, “COMPOSITIONS COMPRISING A VARIANT POLYPEPTIDE AND USES THEREOF” (Arbor Biotechnologies, Inc., published 2024):
Where a chain is given by its changes, count along the chain named.

Columns and labels:
[1] = biological target: T1, variant nuclease D590G combination (P14R, D32R, I61R, E311R, D590G); experiment: cell_activity; PAM 5'-TTTG-3'; settings: tags: pcDNA3.1 expression
T1 chain: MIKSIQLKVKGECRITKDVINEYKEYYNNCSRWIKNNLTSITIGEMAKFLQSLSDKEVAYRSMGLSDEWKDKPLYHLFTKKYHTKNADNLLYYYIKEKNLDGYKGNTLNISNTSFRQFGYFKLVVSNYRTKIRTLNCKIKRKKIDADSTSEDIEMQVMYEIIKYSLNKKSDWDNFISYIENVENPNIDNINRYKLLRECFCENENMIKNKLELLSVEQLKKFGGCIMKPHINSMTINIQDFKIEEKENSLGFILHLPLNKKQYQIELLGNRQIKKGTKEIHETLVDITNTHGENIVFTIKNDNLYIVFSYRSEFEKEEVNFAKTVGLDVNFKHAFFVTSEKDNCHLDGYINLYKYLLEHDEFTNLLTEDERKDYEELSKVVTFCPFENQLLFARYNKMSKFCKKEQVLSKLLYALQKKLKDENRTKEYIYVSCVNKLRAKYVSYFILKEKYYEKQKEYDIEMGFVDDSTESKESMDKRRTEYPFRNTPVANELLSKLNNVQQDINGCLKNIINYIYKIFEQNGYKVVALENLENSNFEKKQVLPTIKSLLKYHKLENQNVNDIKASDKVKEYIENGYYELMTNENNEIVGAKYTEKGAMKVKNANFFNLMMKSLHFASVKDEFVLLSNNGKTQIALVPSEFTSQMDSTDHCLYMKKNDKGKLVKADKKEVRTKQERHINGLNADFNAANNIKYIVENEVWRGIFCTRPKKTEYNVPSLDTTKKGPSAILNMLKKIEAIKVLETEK
Summary of the method: (§1)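 HEK293T cells were lipofected with nuclease plasmid (pcDNA3.1 backbone) plus RNA guide plasmid, with guide omitted in negative controls. After ~72 h cells were lysed in QuickExtract and % indels were derived from NGS reads, averaged over two bioreplicates and two technical replicates.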

[2] = biological target: T2, variant nuclease D55G/E736G combination (P14R, D32R, I61R, E311R, D55G, E736G); experiment: cell_activity; PAM 5'-TTTG-3'; settings: tags: pcDNA3.1 expression
T2 chain: T1 chain with D55G, G590D, E736G
Summary of the method: as §1

B1: AAVS1 crRNA ; AAVS1 target (ssRNA ; dsDNA)
RNA: CUUGUUGUAUAUGUCCUUUUAUAGGUAUUAAACAACUGAGAAUGGUGCGUCCUAGG
DNA 1: TGAGAATGGTGCGTCCTAGG
DNA 2: CCTAGGACGCACCATTCTCA
B1 was tested, and the indel activity [1] was 5.96 fold of WT and the indel activity [2] was 5.76 fold of WT.
